Biological target: ribosomal protein S1 (Escherichia coli, UniProt P0AG67 1-557)
Assay: EMSA; natural S1; preferred over SBS-Up; EMSA: 1 uM biotin-RNA, 1x EMSA/Gel-shift binding buffer (Beyotime), 20 C, 30 min; native PAGE in ice-cold 0.5x TBE, 170 V; salt and pH not stated

UCGGCUCGUAUAAUGUGUGGAACGCUUUUACUGUUUUAAGGAGAUAUACC (ssRNA) [SBS-Down-RNA]: binds.

Source: paper PMC9437053
